We go through three molecules from US20110183329A1, “PROTEIN PHOSPHATASE-1 INHIBITOR-1 POLYMORPHISM AND METHODS OF USE” (priority 2008, published 2011).

Residue numbers refer to the chain shown, from its start.

One test has as its system RyR. The test is described as follows: Western blotting of RyR phosphorylation in infected cardiomyocytes. It is filed as cell-based. The note with it: adult rat cardiomyocytes. The protocol:
(§1) Recombinant adenovirus carrying empty vector, wild-type (WT) G147 inhibitor-1, or D147 inhibitor-1 was generated by using the Adeno-X expression system kit (Clontech, Mountain View, Calif.). All of the adenoviruses also expressed GFP as an indicator of transfection efficiency. Two hours after isolation and culture, myocytes seeded on coverslips or dishes were infected with adenovirus in diluted media, at a multiplicity of infection of 500, for 2 h before the addition of a suitable volume of culture media. Twenty-four hours later, the myocytes were washed in KHB including 1 mM Ca and harvested for quantitative immunoblotting or use in the experiments outlined below.
(§2) Alterations in the phosphorylation and/or total level of proteins were analyzed from whole heart homogenates, with the exception of MyBP-C, which was analyzed from a myofibril protein preparation, using Western blotting. 2-70 μg of protein were separated on polyacrylamide gels (6-15%) and transferred to nitrocellulose membranes. The membranes were incubated with primary antibodies, which were visualized by peroxidase-conjugated secondary antibodies (Amersham Biosciences) and enhanced chemiluminescence (Supersignal West Pico Chemiluminescent, Pierce). The bands were then quantified with densitometry, using ImageQuant 5.2 (GE Healthcare, Little Chalfont, UK). […]

The test system of the next test is adult rat cardiomyocytes. Kind of test: Contractile parameter measurements in adenovirus-infected myocytes. It counts as cell-based. The note with it: for contractility response to isoproterenol (fractional shortening, contraction, relaxation): adenovirus-infected cardiomyocytes; for cellular contractility (fractional shortening, contracting velocity, relaxing velocity): basal conditions, overexpression by adenovirus, 24 h. The protocol: Adult rat ventricular myocytes were isolated and cultured. Hearts from adult male Sprague-Dawley rats (8 wk old) were perfused with modified Krebs-Henseleit buffer (KHB) (118 mM NaCl, 4.8 mM KCl, 25 mM HEPES, 1.25 mM K2HPO4, 1.25 mM MgSO4, 11 mM glucose, 5 mM taurine, and 10 mM butanedione monoxime; pH 7.4) for 5 min. Subsequently, hearts were perfused with an enzyme solution [KHB containing 0.7 mg/ml collagenase type II (263 U/mg), 0.2 mg/ml hyaluronidase, 0.1% BSA, and 25 μM Ca]. Ten and 15 min later, 25 and 50 μM Ca, respectively, were added to the perfusion buffer, so that the Ca concentration was raised to 100 μM, and perfusion was continued for another 5 min. Finally, left ventricular tissue was excised, minced, pipette dissociated, and filtered through a […] screen. Cells were harvested and resuspended in KM including 1 mM Ca and 1% BSA. After a brief centrifugation, the cells were resuspended in KHB including 1.8 mM Ca and 1% BSA, centrifuged briefly again, and resuspended in Dulbecco's modified Eagle's medium containing 2 mg/ml BSA, 2 mM L-camitine, 5 mM creatine, 5 mM taurine, 1.8 mM Ca, 100 IU/ml penicillin, and 100 μg/ml streptomycin. Cells were then counted and plated on laminin-coated glass coverslips or dishes.
as §1
Myocytes that adhered to the coverslips were bathed in temperature (37° C.)—equilibrated KHB containing 1 mM Ca for 20 min. The myocyte suspension was then placed in a Plexiglas chamber, which was positioned on the stage of an inverted epifluorescence microscope (Diaphot 200; Nikon, Tokyo, Japan). Myocyte contraction was field-stimulated by a Grass S5 stimulator (0.5 Hz, square. waves; Grass Technologies, An Astro-Med, Inc., West Warwick, R.I., USA), and contractions were videotaped and digitized on a computer. A video edge motion detector (Crescent Electronics, Windsor, ON, Canada) was used to measure myocyte length and cell shortening, from which the percent fractional shortening (% FS) and maximal rates of contraction and relaxation (±dL/dt) were calculated. To investigate the response of adult rat cardiomyocytes to isoproterenol, a maximal concentration of isoproterenol (100 nM) was added to the KHB (including 1 mM Ca) in the Plexiglas chamber, and the above-mentioned measurements were repeated. All data were analyzed using software from Felix 1.1 software (Photon Technology International, Birmingham, N.J., USA) and IonWizard (IonOptix Corp., Milton, Mass., USA).

Another test concerns troponin I. Kind of test: Western blotting of troponin I phosphorylation in infected cardiomyocytes. The note with it: adult rat cardiomyocytes. It counts as cell-based. As to the method:
as §1, §2

In the next test the test system is PLN. Kind of test: Western blotting of PLN phosphorylation in infected cardiomyocytes. It counts as cell-based, rat. (Immunoblotting shows a protein as a band on a membrane.)
Test [1] has as its system major regulatory proteins related to cardiac calcium homeostasis. Kind of test: Quantitative immunoblotting of calcium homeostasis regulatory proteins after adenoviral gene transfer. It counts as cell-based, rat. The note with it: 24 h post-transfection.
Excerpt: FIG. 2. Isolated adult rat cardiomyocytes were infected with adenoviruses expressing GFP as control (empty), G147 inhibitor-1 or D147 inhibitor-1. (A) Images of infected cardiomyocytes and GFP expression. (B) Representative western blots display expression levels of inhibitor-1, SERCA 2a, PLN, CSQ, and L-type Ca-channel (LTCC).
as §1

Regarding `CC(C)NCC(O)c1ccc(O)c(O)c1` (centres unmarked) [isoproterenol, reference compound], the “effect of isoproterenol treatment on RyR phosphorylation” value in the test with RyR is reported as “increased”. Further, the “effect of isoproterenol on contractility of control-virus cardiomyocytes” value in the test on adult rat cardiomyocytes (100 nM isoproterenol, control virus) is “enhanced contractility”. The “effect of isoproterenol treatment on troponin I phosphorylation” value in the test with troponin I was “increased”. Besides, the “effect of isoproterenol on phosphorylation of PLN in control cells” value in the test on PLN (control cells) is listed as “increased”.

B1: WT inhibitor-1: wild-type human protein phosphatase-1 inhibitor-1 (SEQ ID NO:13) overexpressed by recombinant adenovirus (protein, listed as Homo sapiens)
chain: MEQDNSPRKIQFTVPLLEPHLDPEAAEQIRRRRPTPATLVLTSDQSSPEIDEDRIPNPHLKSTLAMSPRQRKKMTRITPTMKELQMMVEHHLGQQQQGEEPEGAAESTGTQESRPPGIPDTEVESRLGTSGTAKKTAECIPKTHERGSKEPSTKEPSTHIPPLDSKGANSV
As to B1, the “levels of the major regulatory proteins related to cardiac calcium homeostasis” value in test [1] was “did not alter”. Moreover, in the test with adult rat cardiomyocytes (100 nM isoproterenol), the “contractility response to isoproterenol (fractional shortening, contraction, relaxation)” value is given as “enhanced contractility”. Besides, in the test with adult rat cardiomyocytes, the “cellular contractility (fractional shortening, contracting velocity, relaxing velocity)” value was “did not alter”. Further, in the test on PLN (in the presence of isoproterenol), the “level of phosphorylated PLN on serine 16 depressed” value is about 50%. Moreover, the “phosphorylation of PLN” value in the test with PLN (in the presence of isoproterenol, versus control cells) is on record as “similarly increased”.

B2: D147 inhibitor-1: human inhibitor-1 with aspartic acid for glycine at position 147 (SEQ ID NO:14), overexpressed by recombinant adenovirus (protein, listed as Homo sapiens)
chain: B1 chain with G147D
With B2, the “levels of the major regulatory proteins related to cardiac calcium homeostasis” value in test [1] is “did not alter”. In addition, the “contractility response at lower isoproterenol dose” value with adult rat cardiomyocytes (10 nM isoproterenol) is “differences similar to those observed in 100 nM”. Moreover, in the test on adult rat cardiomyocytes (100 nM isoproterenol), the “contractile parameters depressed compared with WT inhibitor-1-stimulated cells” value is given as 24-28% and the “contractility response to isoproterenol (fractional shortening, contraction, relaxation)” value is reported as “significantly blunted”. Further, in the test with adult rat cardiomyocytes, the “cellular contractility (fractional shortening, contracting velocity, relaxing velocity)” value is “did not alter”.
